The values that follow come from patent US20070192880.

One data set has as its target T1, CDC (expressed in cells) (UniProt P03372).
T1 sequence: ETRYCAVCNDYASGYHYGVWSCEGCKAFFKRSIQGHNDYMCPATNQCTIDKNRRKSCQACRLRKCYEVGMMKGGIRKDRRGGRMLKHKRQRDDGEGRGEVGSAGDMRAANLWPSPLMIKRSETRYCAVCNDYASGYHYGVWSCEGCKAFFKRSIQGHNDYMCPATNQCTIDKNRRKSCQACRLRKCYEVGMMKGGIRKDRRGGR
Put plainly: cell_activity. To be noted: COS-1; little effect in CHO.

The target in the next data set is T2, CDC-KRAB (UniProt P03372).
T2 sequence: T1 sequence
Nature of the data set: cell_activity. The settings on record: COS-1 and CHO; no effect without ERE.

In a further data set the target is T3, CDC-SID (UniProt P03372).
T3 sequence: T1 sequence
Nature of the data set: cell_activity.

In a further data set the target is T4, KRAB-CDC (UniProt P03372).
T4 sequence: T1 sequence
Put plainly: cell_activity. The settings on record: COS-1 and CHO; no effect without ERE.

In the next data set the target is T5, KRAB-CDC-SID (UniProt P03372).
T5 sequence: T1 sequence
Put plainly: cell_activity. The settings on record: COS-1.

A further data set concerns the target T6, SID-CDC (UniProt P03372).
T6 sequence: T1 sequence
Nature of the data set: cell_activity.

For a further data set, the target named is T7, SID-CDC-KRAB (UniProt P03372).
T7 sequence: T1 sequence
Nature of the data set: cell_activity. The settings on record: COS-1.

Data set [1] addresses T8, CDC ERE binding module (ERα C domain - D hinge - C domain fusion) (UniProt P03372).
T8 sequence: T1 sequence
Nature of the data set: EMSA. The settings on record: apparent Kd from EMSA competition.

Another data set has as its target T9, ERα (Homo sapiens) (UniProt P03372).
T9 sequence: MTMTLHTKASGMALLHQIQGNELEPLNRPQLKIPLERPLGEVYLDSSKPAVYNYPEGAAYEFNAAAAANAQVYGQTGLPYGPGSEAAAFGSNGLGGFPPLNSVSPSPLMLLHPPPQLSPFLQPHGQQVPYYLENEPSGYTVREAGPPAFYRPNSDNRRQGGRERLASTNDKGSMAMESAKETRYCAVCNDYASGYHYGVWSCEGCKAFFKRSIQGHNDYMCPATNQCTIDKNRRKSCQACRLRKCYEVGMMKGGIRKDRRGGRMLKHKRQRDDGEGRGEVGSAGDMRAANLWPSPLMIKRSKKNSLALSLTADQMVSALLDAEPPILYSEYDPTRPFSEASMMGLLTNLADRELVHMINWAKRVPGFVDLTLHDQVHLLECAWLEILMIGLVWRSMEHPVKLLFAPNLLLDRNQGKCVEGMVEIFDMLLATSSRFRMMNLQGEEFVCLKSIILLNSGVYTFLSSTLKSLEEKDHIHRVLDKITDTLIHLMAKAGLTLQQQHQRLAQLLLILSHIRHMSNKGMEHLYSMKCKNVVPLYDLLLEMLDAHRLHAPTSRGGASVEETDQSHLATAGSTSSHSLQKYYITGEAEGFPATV
Nature of the data set: EMSA. To be noted: EMSA competition. (In EMSA bound probe runs differently from free probe, usually more slowly.)

The next data set concerns the target ERα (expressed in cells) (UniProt P03372). Put plainly: cell_activity. The settings on record: COS-1, E2; about 2-fold without ligand.
Another data set relates to SID-CDC-SID. Nature of the data set: cell_activity. The settings on record: COS-1; given as decreased about 60% of that observed with parent vector.
Chain of SID-CDC-SID (chain, as listed by the source): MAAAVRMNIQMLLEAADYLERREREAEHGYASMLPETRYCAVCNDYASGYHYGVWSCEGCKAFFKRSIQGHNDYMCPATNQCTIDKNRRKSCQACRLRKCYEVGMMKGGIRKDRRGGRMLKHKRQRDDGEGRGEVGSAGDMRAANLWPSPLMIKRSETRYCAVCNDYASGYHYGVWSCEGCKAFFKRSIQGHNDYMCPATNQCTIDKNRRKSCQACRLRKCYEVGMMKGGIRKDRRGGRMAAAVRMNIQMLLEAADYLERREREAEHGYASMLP
[2] abbreviates: COS-1 and CHO, no effect without ERE.
The mark [3] stands for this setting: COS-1, given as decreased about 60% of that observed with parent vector.

In the case of “GGTCANNNTGACC (double strand) [SV40 enhancer/promoter with one consensus ERE]”, the activity with CDC (expressed in cells) was determined as 50 % repression; with CDC-KRAB it was 80 % repression; with CDC-SID (setting [2]), 80 % repression; in the data set with KRAB-CDC it was 50 % repression; in the data set with KRAB-CDC-SID it was 95 % repression; with SID-CDC (setting [2]) it was 50 % repression. For the same substance, the activity in the data set with SID-CDC-KRAB was determined as 95 % repression.
“GGTCANNNTGACC (double strand) [consensus ERE]”: the figures for the Kd (in data set [1]; with ERα (Homo sapiens)) were 1.49 nM and 0.26 nM, respectively.
Substance complement C3 promoter registered an activity with ERα (expressed in cells) of 11 fold.
cathepsin D promoter: the activity in the data set with CDC-SID (setting [3]), with SID-CDC (setting [3]) and in the data set on SID-CDC-SID was 60 % repression throughout.
